In patent publication US20060172357A1, “Detecting human antibodies in non-human serum” (Genentech, priority 2004, published 2006):
pKd: −log10 of the molar value. Each block holds one substance with its values, some of them ahead of it.

Experiments:
[1] = biological target: full-length CD20 molecule (human) (UniProt P11836); assay: ELISA, full-length CD20 coated at 1 µg/mL in PBS, detection sheep anti-hu IgG HRP (monkey adsorbed)
[2] = biological target: full-length CD20 molecule (human) (UniProt P11836); assay: ELISA, full-length CD20 coated at 1 µg/mL in PBS, detection goat anti-hu F(ab')2 HRP
[3] = biological target: full-length CD20 molecule (human) (UniProt P11836); assay: ELISA, full-length CD20 coated at 5 µg/mL in PBS, detection goat anti-hu F(ab')2 HRP
[4] = biological target: full-length CD20 molecule (human) (UniProt P11836); assay: ELISA, full-length CD20 coated at 5 µg/mL in PBS, detection sheep anti-hu IgG HRP (monkey adsorbed)
[5] = biological target: T1, biotinylated CD20 35-mer (streptavidin plate ELISA; mono- or bis-biotin form not stated); assay: ELISA, streptavidin plate with CD20 35-mer at 20 µg/ml, 2 wash cycles between steps, goat anti-human IgG (H+L) HRP detection
T1 sequence (peptide, biotinylated (mono or bis not stated); C-terminal amide; disulfide-cyclized): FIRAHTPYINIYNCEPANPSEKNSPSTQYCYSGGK

[6] = biological target: T1, biotinylated CD20 35-mer (streptavidin plate ELISA; mono- or bis-biotin form not stated); assay: ELISA, streptavidin plate with CD20 35-mer at 2 µg/ml, 1 wash cycle between steps, goat anti-human IgG (H+L) HRP detection
[7] = biological target: T1, biotinylated CD20 35-mer (streptavidin plate ELISA; mono- or bis-biotin form not stated); assay: ELISA, streptavidin plate with CD20 35-mer at 10 µg/ml, 3 wash cycles between steps, goat anti-human IgG (H+L) HRP detection
[8] = biological target: disulfide-cyclized Bis-biotin CD20 51-mer; assay: SPR Biacore 3000, method 2: Bis-CD20-51mer on streptavidin chip at 1037 RU, 2H7-IgG injected, bivalent analyte model, apparent KD
[9] = biological target: T1, biotinylated CD20 35-mer (streptavidin plate ELISA; mono- or bis-biotin form not stated); assay: ELISA, streptavidin plate with CD20 35-mer at 10 µg/ml, 1 wash cycle between steps, goat anti-human IgG (H+L) HRP detection
[10] = biological target: T1, biotinylated CD20 35-mer (streptavidin plate ELISA; mono- or bis-biotin form not stated); assay: ELISA, streptavidin plate with CD20 35-mer at 20 µg/ml, 1 wash cycle between steps, goat anti-human IgG (H+L) HRP detection
[11] = biological target: Bis-biotin disulfide-cyclized CD20 35-mer; assay: SPR Biacore 3000, method 2: Bis-CD20-35mer on streptavidin chip at 685 RU, 2H7-IgG injected, bivalent analyte model, apparent KD
[12] = biological target: T2, disulfide-cyclized mono-biotin CD20 35-mer; assay: SPR Biacore 3000, method 1: Mono-CD20-35mer on streptavidin chip at 95 RU, 2H7-IgG injected, 1:1 model, apparent KD
T2 sequence (peptide, N-terminal biotin; C-terminal amide; disulfide-cyclized): T1 sequence (peptide, biotinylated (mono or bis not stated); C-terminal amide; disulfide-cyclized)

[13] = biological target: T1, biotinylated CD20 35-mer (streptavidin plate ELISA; mono- or bis-biotin form not stated); assay: ELISA, streptavidin plate with CD20 35-mer at 10 µg/ml, 2 wash cycles between steps, goat anti-human IgG (H+L) HRP detection
rhuMAb2H7 [14] = assay: direct sandwich ELISA, sheep anti-human IgG capture, goat anti-human IgG (H+L) HRP detection diluted in Buffer D
rhuMAb2H7 [15] = assay: direct sandwich ELISA, sheep anti-human IgG capture, goat anti-human IgG HRP detection, buffer D (with BGG) in all steps, n = 8
rhuMAb2H7 [16] = assay: bridging ELISA, sheep anti-human IgG capture and detection; blocking D1 + 0.2% fish gelatin, other diluents not given
rhuMAb2H7 [17] = assay: bridging ELISA, sheep anti-human IgG capture and detection; blocking D, sample diluent D, detection diluent D
rhuMAb2H7 [18] = assay: direct sandwich ELISA, sheep anti-human IgG capture, goat anti-human IgG (H+L) HRP detection diluted in Buffer A + 0.35 M NaCl (A1)
rhuMAb2H7 [19] = assay: direct sandwich ELISA, sheep anti-human IgG capture, goat anti-human IgG (H+L) HRP detection diluted in Buffer D - BGG (D1)
rhuMAb2H7 [20] = assay: direct sandwich ELISA, sheep anti-human IgG capture, goat anti-human IgG HRP detection, buffer A in all steps, n = 8
rhuMAb2H7 [21] = assay: direct sandwich ELISA, sheep anti-human IgG capture, goat anti-human IgG (H+L) HRP detection diluted in Buffer A + 0.25% CHAPS (A4)
rhuMAb2H7 [22] = assay: bridging ELISA, sheep anti-human IgG capture and detection; D1 + 0.2% rabbit IgG in blocking, sample and detection buffers
rhuMAb2H7 [23] = assay: direct sandwich ELISA, sheep anti-human IgG capture, goat anti-human IgG HRP detection, buffer B in all steps, n = 8
rhuMAb2H7 [24] = assay: direct sandwich ELISA, sheep anti-human IgG capture, goat anti-human IgG (H+L) HRP detection diluted in Buffer A + 5 mM EDTA (A3)
rhuMAb2H7 [25] = assay: bridging ELISA, sheep anti-human IgG capture and detection; D1 + 0.2% donkey IgG in blocking, sample and detection buffers
rhuMAb2H7 [26] = assay: direct sandwich ELISA, sheep anti-human IgG capture, goat anti-human IgG (H+L) HRP detection diluted in Buffer A
rhuMAb2H7 [27] = assay: direct sandwich ELISA, sheep anti-human IgG capture, goat anti-human IgG HRP detection, buffer E (HEPES) in all steps, n = 8
rhuMAb2H7 [28] = assay: bridging ELISA, sheep anti-human IgG capture and detection; blocking D, sample diluent D1, detection diluent D1
rhuMAb2H7 [29] = assay: direct sandwich ELISA, sheep anti-human IgG capture, goat anti-human IgG HRP detection, buffer C (with BGG) in all steps, n = 8
rhuMAb2H7 [30] = assay: bridging ELISA, sheep anti-human IgG capture and detection; D1 + 0.2% mouse IgG in blocking, sample and detection buffers
rhuMAb2H7 [31] = assay: direct sandwich ELISA, sheep anti-human IgG capture, goat anti-human IgG (H+L) HRP detection diluted in Buffer A + 0.2% BGG (A2)
rhuMAb2H7 [32] = assay: bridging ELISA, sheep anti-human IgG capture and detection; blocking D, sample diluent D, detection diluent A

Sequence of full-length CD20 molecule (human) (P11836 whole entry): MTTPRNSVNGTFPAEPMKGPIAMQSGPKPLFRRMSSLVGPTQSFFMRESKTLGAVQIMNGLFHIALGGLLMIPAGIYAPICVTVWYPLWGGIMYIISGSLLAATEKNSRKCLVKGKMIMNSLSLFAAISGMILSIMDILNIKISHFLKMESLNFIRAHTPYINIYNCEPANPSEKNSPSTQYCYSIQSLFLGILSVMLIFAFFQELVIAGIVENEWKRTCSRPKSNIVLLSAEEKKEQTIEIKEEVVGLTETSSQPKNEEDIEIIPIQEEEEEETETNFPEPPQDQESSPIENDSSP
Sequence of rhuMAb2H7 (antibody) (VH): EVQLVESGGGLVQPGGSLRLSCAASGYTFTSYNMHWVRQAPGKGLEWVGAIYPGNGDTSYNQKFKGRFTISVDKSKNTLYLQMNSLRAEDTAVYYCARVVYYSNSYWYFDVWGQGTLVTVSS
Sequence of rhuMAb2H7 (antibody) (VL): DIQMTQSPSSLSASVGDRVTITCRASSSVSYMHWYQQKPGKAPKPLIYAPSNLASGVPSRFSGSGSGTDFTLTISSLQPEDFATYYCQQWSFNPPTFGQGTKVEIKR
Sequence of disulfide-cyclized Bis-biotin CD20 51-mer (peptide, as listed by the source): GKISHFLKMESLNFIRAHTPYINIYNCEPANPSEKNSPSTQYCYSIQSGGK

signal of 247 ng/ml of Rituxan (O.D.450 nm) [1]: 0.012 O.D.
signal of 247 ng/ml of Rituxan (O.D.450 nm) [2]: 0.065 O.D.
signal of 247 ng/ml of Rituxan (O.D.450 nm) [3]: 0.166 O.D.
signal of 247 ng/ml of Rituxan (O.D.450 nm) [4]: 0.023 O.D.
Substance: Rituxan (antibody)

O.D. (450-650 nm) for 160 µg/ml of rhuMAb2H7 [5]: 0.01 O.D.
O.D. (450-650 nm) for 160 µg/ml of rhuMAb2H7 [6]: 0.063 O.D.
O.D. (450-650 nm) for 160 µg/ml of rhuMAb2H7 [7]: 0.009 O.D.
pKd [8]: 6.96
O.D. (450-650 nm) for 160 µg/ml of rhuMAb2H7 [9]: 0.063 O.D.
O.D. (450-650 nm) for 160 µg/ml of rhuMAb2H7 [10]: 0.055 O.D.
pKd [11]: 6.30
pKd [12]: 4.38
O.D. (450-650 nm) for 160 µg/ml of rhuMAb2H7 [13]: 0.009 O.D.
Substance: rhuMAb2H7 (antibody)

240 ng/ml 2H7 (O.D. 450-650 nm) (rhuMAb2H7 [14]): 0.962 O.D.
Signal, O.D. 450-650 nm at 240 ng/ml rhuMAb2H7 (rhuMAb2H7 [15]): 1.72 O.D.
Signal of 2H7 at 240 ng/ml (rhuMAb2H7 [16]): 0.34 O.D.
Signal of 2H7 at 240 ng/ml (rhuMAb2H7 [17]): 1.15 O.D.
240 ng/ml 2H7 (O.D. 450-650 nm) (rhuMAb2H7 [18]): 2 O.D.
240 ng/ml 2H7 (O.D. 450-650 nm) (rhuMAb2H7 [19]): 1.65 O.D.
Signal, O.D. 450-650 nm at 240 ng/ml rhuMAb2H7 (rhuMAb2H7 [20]): 2.04 O.D.
240 ng/ml 2H7 (O.D. 450-650 nm) (rhuMAb2H7 [21]): 2.15 O.D.
Signal of 2H7 at 240 ng/ml (rhuMAb2H7 [22]): 0.06 O.D.
Signal, O.D. 450-650 nm at 240 ng/ml rhuMAb2H7 (rhuMAb2H7 [23]): 1.91 O.D.
240 ng/ml 2H7 (O.D. 450-650 nm) (rhuMAb2H7 [24]): 2.13 O.D.
Signal of 2H7 at 240 ng/ml (rhuMAb2H7 [25]): 0.38 O.D.
240 ng/ml 2H7 (O.D. 450-650 nm) (rhuMAb2H7 [26]): 2.23 O.D.
Signal, O.D. 450-650 nm at 240 ng/ml rhuMAb2H7 (rhuMAb2H7 [27]): 2.1 O.D.
Signal of 2H7 at 240 ng/ml (rhuMAb2H7 [28]): 1.04 O.D.
Signal, O.D. 450-650 nm at 240 ng/ml rhuMAb2H7 (rhuMAb2H7 [29]): 1.88 O.D.
Signal of 2H7 at 240 ng/ml (rhuMAb2H7 [30]): 0.09 O.D.
240 ng/ml 2H7 (O.D. 450-650 nm) (rhuMAb2H7 [31]): 2.28 O.D.
Signal of 256 ng/ml of 2H7 (rhuMAb2H7 [32]): 1.6 O.D.
Substance: sheep anti-human IgG heavy (H) and light (L) chain, cynomolgus monkey serum adsorbed (Cat #CUS1684, The Binding Site) (antibody)
